A word on the Kd: it is the constant that tells how readily two partners part at equilibrium. As usually defined, the stoichiometry N is a count of units in the complex or per binding partner.

Data on 2 molecules can be found in paper PMC3140434 (Journal of molecular biology, 2011).

For series [1], the target named is Rev (Human immunodeficiency virus 1) (UniProt P04325). Nature of the series: fluorescence. Particulars: cited from earlier work.
Series [2] concerns the molecule itself. The series can be described thus: single-molecule TIRF fluorescence microscopy.

Consider DDX1 (from UniProt Q92499), for which the Kd in series [1] is 36 nM.

B1: HIV-1 Rev (recombinant construct with N-terminal extension, both native cysteines changed to serine, labeled with Alexa-Fluor 555) (natural protein)
chain: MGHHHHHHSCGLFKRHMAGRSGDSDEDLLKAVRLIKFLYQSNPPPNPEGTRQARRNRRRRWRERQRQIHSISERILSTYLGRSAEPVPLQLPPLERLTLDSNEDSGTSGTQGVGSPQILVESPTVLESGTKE
Regarding B1, in series [2], the Kd is about 1.5 nM and the “stoichiometry N” value is at most 8 Rev monomers on one RRE.
